According to patent publication EP4631972A1, “SITE-SPECIFIC COUPLED PEGYLATED INTERLEUKIN-2 MUTANT WITH RECEPTOR AFFINITY PREFERENCE AND USE THEREOF” (priority 2022, dated 2024):
Numbered stars: 1 amine (or outer) side, 2 acyl side, 3 side chain; on linkers, the order of the positions; unused ones are H or OH. Square brackets hold non-standard residues; d marks the D form. Prk = N-ε-propargyloxycarbonyl-L-lysine, C#CCOC(=O)NCCCC[C@H](N[*:1])C(=O)[*:2]; PEG60k = one 60 kD PEG attached to the residue; Phe(4-Ac) = CC(=O)c1ccc(C[C@H](N)C(=O)O)cc1

T1: IL-2Rαβγ triple receptor (UniProt P01589 22-272; P14784 27-551; P31785 23-369)
T1 sequence (looked up) 1: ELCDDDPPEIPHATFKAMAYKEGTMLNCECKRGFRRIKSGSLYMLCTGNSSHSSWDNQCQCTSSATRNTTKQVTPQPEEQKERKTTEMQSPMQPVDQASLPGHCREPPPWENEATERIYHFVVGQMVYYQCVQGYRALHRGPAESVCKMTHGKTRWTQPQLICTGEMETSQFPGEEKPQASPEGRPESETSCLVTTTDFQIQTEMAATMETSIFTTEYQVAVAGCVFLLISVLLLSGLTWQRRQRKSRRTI
T1 sequence (looked up) 2: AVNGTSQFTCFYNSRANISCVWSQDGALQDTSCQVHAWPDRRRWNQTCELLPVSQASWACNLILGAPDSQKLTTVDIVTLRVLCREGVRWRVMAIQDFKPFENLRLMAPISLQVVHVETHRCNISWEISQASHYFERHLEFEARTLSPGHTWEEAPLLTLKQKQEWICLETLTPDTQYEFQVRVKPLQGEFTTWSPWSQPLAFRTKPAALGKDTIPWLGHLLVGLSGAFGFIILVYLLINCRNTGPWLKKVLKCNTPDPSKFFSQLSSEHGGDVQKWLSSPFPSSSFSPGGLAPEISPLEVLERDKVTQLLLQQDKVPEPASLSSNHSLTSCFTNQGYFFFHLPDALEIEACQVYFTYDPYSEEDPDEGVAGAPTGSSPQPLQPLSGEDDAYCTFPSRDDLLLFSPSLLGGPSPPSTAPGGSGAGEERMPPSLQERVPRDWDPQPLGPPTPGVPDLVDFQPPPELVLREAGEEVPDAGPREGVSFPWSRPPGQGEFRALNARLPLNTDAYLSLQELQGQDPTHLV
T1 sequence (looked up) 3: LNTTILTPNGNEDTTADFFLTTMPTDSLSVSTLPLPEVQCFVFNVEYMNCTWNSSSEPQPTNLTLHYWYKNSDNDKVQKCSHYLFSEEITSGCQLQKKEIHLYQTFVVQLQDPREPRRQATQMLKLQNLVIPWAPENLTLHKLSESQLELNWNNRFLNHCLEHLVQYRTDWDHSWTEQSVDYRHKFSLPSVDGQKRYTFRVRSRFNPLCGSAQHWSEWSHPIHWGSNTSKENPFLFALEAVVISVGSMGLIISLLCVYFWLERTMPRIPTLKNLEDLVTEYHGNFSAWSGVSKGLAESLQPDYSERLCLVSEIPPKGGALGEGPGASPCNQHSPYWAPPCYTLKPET

T2: IL-2βγ dual receptor (Homo sapiens, UniProt P14784+P31785)
T2 construct: Uniprot P14784 1Met-551Val was constructed into plasmid pcDNA3.1(+); Uniprot P31785 1Met-551Thr was constructed into plasmid pcDNA3.1/zeo; expressed in transfected cells; host or cells: 293EC18 cells, transient co-transfection with pCMV/JAK3 and PGL4.52/STAT5RE
T2 sequence (P14784 27-551): T1 sequence (looked up) 2
T2 sequence (P31785 23-369): T1 sequence (looked up) 3

B1: 60k-1PEG-IL2-N88R-N33Prk (ligand)
chain: APTSSSTKKTQLQLEHLLLDLQMILNGINNYK[Prk](PEG 60 kDa)PKLTRMLTFKFYMPKKATELKHLQCLEEELKPLEEVLNLAQSKNFHLRPRDLISRINVIVLELKGSETTFMCEYADETATIVEFLNRWITFSQSIISTLT
B2: 40k-1PEG-IL2-N88R-N77pAcF (ligand)
chain: APTSSSTKKTQLQLEHLLLDLQMILNGINNYKNPKLTRMLTFKFYMPKKATELKHLQCLEEELKPLEEVLNLAQSK[Phe(4-Ac)](PEG‑hydroxylamine 40 kDa)FHLRPRDLISRINVIVLELKGSETTFMCEYADETATIVEFLNRWITFSQSIISTLT
modifications: not fully specified
B3: 20k-1PEG-IL2-N88R-N33Prk (ligand)
chain: APTSSSTKKTQLQLEHLLLDLQMILNGINNYK[Prk](PEG‑azide 20 kDa)PKLTRMLTFKFYMPKKATELKHLQCLEEELKPLEEVLNLAQSKNFHLRPRDLISRINVIVLELKGSETTFMCEYADETATIVEFLNRWITFSQSIISTLT
B4: 60k-1PEG-IL2-N88R-N77pAcF (ligand)
chain: APTSSSTKKTQLQLEHLLLDLQMILNGINNYKNPKLTRMLTFKFYMPKKATELKHLQCLEEELKPLEEVLNLAQSK[Phe(4-Ac)](PEG60k)FHLRPRDLISRINVIVLELKGSETTFMCEYADETATIVEFLNRWITFSQSIISTLT
B5: 40k-1PEG-IL2-N88R-N33pAcF (ligand)
chain: APTSSSTKKTQLQLEHLLLDLQMILNGINNYK[Phe(4-Ac)](PEG‑hydroxylamine 40 kDa)PKLTRMLTFKFYMPKKATELKHLQCLEEELKPLEEVLNLAQSKNFHLRPRDLISRINVIVLELKGSETTFMCEYADETATIVEFLNRWITFSQSIISTLT
modifications: not fully specified
B6: 80k-1PEG-IL2-N88R-S75C: IL-2 mutant N88R, S75C with one 80k PEG conjugated to cysteine 75 (conjugate)
chain: APTSSSTKKTQLQLEHLLLDLQMILNGINNYKNPKLTRMLTFKFYMPKKATELKHLQCLEEELKPLEEVLNLAQC(PEG 80 kDa)KNFHLRPRDLISRINVIVLELKGSETTFMCEYADETATIVEFLNRWITFSQSIISTLT
B7: 20k-1PEG-IL2-N88R-N33pAcF (ligand)
chain: APTSSSTKKTQLQLEHLLLDLQMILNGINNYK[Phe(4-Ac)](PEG‑hydroxylamine 20 kDa)PKLTRMLTFKFYMPKKATELKHLQCLEEELKPLEEVLNLAQSKNFHLRPRDLISRINVIVLELKGSETTFMCEYADETATIVEFLNRWITFSQSIISTLT
modifications: not fully specified
B8: 60k-1PEG-IL2-N88R-N77Prk (ligand)
chain: APTSSSTKKTQLQLEHLLLDLQMILNGINNYKNPKLTRMLTFKFYMPKKATELKHLQCLEEELKPLEEVLNLAQSK[Prk](PEG 60 kDa)FHLRPRDLISRINVIVLELKGSETTFMCEYADETATIVEFLNRWITFSQSIISTLT
B9: 40k-1PEG-IL2-N88R-N77Prk (ligand)
chain: APTSSSTKKTQLQLEHLLLDLQMILNGINNYKNPKLTRMLTFKFYMPKKATELKHLQCLEEELKPLEEVLNLAQSK[Prk](PEG‑azide 40 kDa)FHLRPRDLISRINVIVLELKGSETTFMCEYADETATIVEFLNRWITFSQSIISTLT
B10: 20k-1PEG-IL2-N88R-N77pAcF (ligand)
chain: APTSSSTKKTQLQLEHLLLDLQMILNGINNYKNPKLTRMLTFKFYMPKKATELKHLQCLEEELKPLEEVLNLAQSK[Phe(4-Ac)](PEG‑hydroxylamine 20 kDa)FHLRPRDLISRINVIVLELKGSETTFMCEYADETATIVEFLNRWITFSQSIISTLT
modifications: not fully specified
B11: 60k-1PEG-IL2-N88R-N33pAcF (ligand)
chain: APTSSSTKKTQLQLEHLLLDLQMILNGINNYK[Phe(4-Ac)](PEG60k)PKLTRMLTFKFYMPKKATELKHLQCLEEELKPLEEVLNLAQSKNFHLRPRDLISRINVIVLELKGSETTFMCEYADETATIVEFLNRWITFSQSIISTLT
B12: 20k-1PEG-IL2-N88R-N77Prk (ligand)
chain: APTSSSTKKTQLQLEHLLLDLQMILNGINNYKNPKLTRMLTFKFYMPKKATELKHLQCLEEELKPLEEVLNLAQSK[Prk](PEG‑azide 20 kDa)FHLRPRDLISRINVIVLELKGSETTFMCEYADETATIVEFLNRWITFSQSIISTLT
B13: 40k-1PEG-IL2-N88R-N33Prk (ligand)
chain: APTSSSTKKTQLQLEHLLLDLQMILNGINNYK[Prk](PEG‑azide 40 kDa)PKLTRMLTFKFYMPKKATELKHLQCLEEELKPLEEVLNLAQSKNFHLRPRDLISRINVIVLELKGSETTFMCEYADETATIVEFLNRWITFSQSIISTLT

Experiments:
IL-2Rαβγ triple receptor [1] = target: T1, IL-2Rαβγ triple receptor; test: cell-based or functional assay
IL-2Rαβγ triple receptor [2] = target: T1, IL-2Rαβγ triple receptor; test: cell-based or functional assay; remark: listed apart in the source
IL-2βγ dual receptor = target: T2, IL-2βγ dual receptor; test: STAT5 reporter gene assay, activation of IL-2βγ dual receptor in 293EC18/βγ/JAK3/STAT5 cells; assay type: cell-based
Procedure: Since the binding of IL-2 to the β and γ subunits of its receptor induces STAT5 phosphorylation, which subsequently leads to dimerization and translocation into the nucleus to promote target gene transcription, this example evaluates the ability of the mutant IL-2 polypeptides to induce signaling through the IL-2 receptor by measuring STAT5 phosphorylation.
Adherent 293EC18 cells were cultured to about 90% confluence using conventional methods. After trypsin digestion, the cells were resuspended in cell culture medium to 4×10^5 cells/ml and 50 µl/well were added to two 96-well cell culture plates. After incubation at 37°C for 48 h, the supernatant was aspirated and fresh culture medium was added. According to the manufacturer's method, four plasmids, pcDNA3.1(+)/CD122 (constructed by Nanjing Novoacine Biotechnology Co., Ltd, Uniprot P14784 1Met-551Val was constructed into plasmid pcDNA3.1(+)), pcDNA3.1/puro/CD132 (constructed by Nanjing Novoacine Biotechnology Co., Ltd, Uniprot P31785 1Met-551Thr was constructed into plasmid pcDNA3.1/zeo), pCMV/JAK3 (Sino Biological), and PGL4.52/STAT5RE (Promega) were transiently transfected into 293EC18 cells using a cationic transfection reagent (ExFect Transfection Reagent, Vazyme). The obtained cells were named 293EC18/βγ/JAK3/STAT5 cells. Alternatively, five plasmids, pcDNA3.1/zeo/CD25 (constructed by Nanjing Novoacine Biotechnology Co., Ltd, Uniprot P01589 1Met-551Ile constructed into plasmid pcDNA3.1/zeo), pcDNA3.1(+)/CD122 (constructed by Nanjing Novoacine Biotechnology Co., Ltd, Uniprot P14784 1Met-551Val constructed into plasmid pcDNA3.1(+)), pcDNA3.1/puro/CD132 (constructed by Nanjing Novoacine Biotechnology Co., Ltd, UniprotP31785 1Met-551Thr constructed into plasmid pcDNA3.1/zeo), pCMV/JAK3 (Sino Biological), and PGL4.52/STAT5RE (Promega) were transiently transferred into 293EC18 cells, and the obtained cells were named 293EC18/αβγ/JAK3/STAT5 cells. The transfected cells were incubated at 37°C and 5% CO2 for another 6 h.
Each IL2 mutant was diluted 4-fold in a gradient manner using PBS buffer, with a total of 11 dilutions and a starting concentration of 65.2 nM. In the above cell culture plates, 50 µl/well of each of the serially diluted IL2 mutant samples was added in duplicate. Then, the cell culture plate was placed in an incubator at 37°C and 5% CO2 for overnight culture. The cell culture plates were kept at room temperature for 20 ± 5 minutes to equilibrate the plates to room temperature. Bio-Lite Luciferase Assay System reagents that have been mixed and equilibrated to room temperature were added to the cell culture plates to be tested at 100 µl/well, placed on a microplate shaker at 450 rpm to mix for 2 minutes, then allowed to stand at room temperature for 3 minutes, and the chemiluminescence value was detected with an enzyme plate reader.
The logarithm of the final concentration of each IL-2 mutant sample was used as the X-axis, and the chemiluminescence detection results were used as the Y-axis for plotting. Data were analyzed using the four-parameter logistic regression model in GraphPad Prism 9. Table 2 EC50 values for the activation of the IL-2αβγ triple receptor by PEG-IL-2 mutants as determined by a reporter gene assay.
According to the method of Example 3, each polyethylene glycol-modified mutant obtained in this example was assessed for the binding preference to the IL2 receptors by a reporter assay. Table 4 EC50 values for the activation of the IL-2αβγ triple receptor by PEG-IL-2 mutants as determined by a reporter gene assay.
Referring to Example 3, the phosphorylation of STAT5 was used to evaluate the ability of the PEG-modified IL-2 mutants having a non-natural amino acid mutation prepared in Example 14 to induce signal transduction via the IL-2 receptor. […]

Molecule	Activation of IL-2αβγ receptor EC50 (STAT5 luciferase reporter gene assay) (IL-2Rαβγ triple receptor [1]) [nM]	Activation of IL-2αβγ triple receptor EC50 (STAT5 luciferase reporter gene assay) (IL-2Rαβγ triple receptor [2]) [nM]	further results
B1	0.368		
B2		1.92	
B3	0.323		
B4		5.12	
B5		3.69	
B6			activation effect on the IL-2Rβγ dual receptor compared with control IL-2 N88R (IL-2βγ dual receptor; Figure 1, concentration of 65.2 nM): lower activation effects; activation effect on / affinity to IL-2Rβγ dual receptor compared with control IL-2 N88R (IL-2βγ dual receptor; Figure 2, all concentrations): further reduced the affinity to IL-2Rβγ
B7		0.319	
B8	0.417		
B9	0.517		
B10		0.5	
B11		9.21	
B12	0.361		
B13	0.443		
